# In PMC12843318, “Zinc-Finger 5 Is an Activation Domain in the Saccharomyces cerevisiae Stress-Responsive Transcription Factor Fzf1”:
# T1: Fzf1-N117 (Saccharomyces cerevisiae, UniProt P32805 1-117)
# T1 sequence: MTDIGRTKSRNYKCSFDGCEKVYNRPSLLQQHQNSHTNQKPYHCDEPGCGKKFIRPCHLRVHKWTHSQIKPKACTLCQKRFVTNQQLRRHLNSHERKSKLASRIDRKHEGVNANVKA
# T2: Fzf1 (Saccharomyces cerevisiae, UniProt P32805 1-299)
# T2 sequence: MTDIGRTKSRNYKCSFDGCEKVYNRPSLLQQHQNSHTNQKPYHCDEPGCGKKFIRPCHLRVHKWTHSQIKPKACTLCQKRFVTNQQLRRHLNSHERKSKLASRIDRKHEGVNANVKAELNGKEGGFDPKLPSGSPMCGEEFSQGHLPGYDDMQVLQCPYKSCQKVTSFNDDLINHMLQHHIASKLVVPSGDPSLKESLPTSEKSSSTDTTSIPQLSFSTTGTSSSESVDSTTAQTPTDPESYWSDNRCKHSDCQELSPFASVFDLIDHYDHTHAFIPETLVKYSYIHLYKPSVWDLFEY
# B1: SSU1-CS2 (dsDNA)
# DNA 1: GAAAAAAAAATGATAGTTTGCAGGAAG
# DNA 2: CTTCCTGCAAACTATCATTTTTTTTTC
# How the values were obtained:
# [1] = target: T1, Fzf1-N117; experiment: EMSA; poly dI-dC, BSA; EMSA: 0.1 pmol dsDNA probe, 2 ng BSA, 0.5 ug poly dI-dC (added after incubation), EMSA binding buffer (composition, salt and pH not given), 20 min on ice, 6% native PAGE; protein 0-150 nM; conditions: protein: recombinant; tags: N-terminal GST removed by PreScission protease; blunt
# [2] = target: T2, Fzf1; experiment: as above; conditions: protein: recombinant; tags: GST fusion from pGEX-6p-1 (pGEX-FZF1); tag removal by PreScission described only for N117; blunt
binder,measurement,setting,value
B1,Kd,[1],~30 nM
same,Kd,[2],~35 nM
